From the nanobody polyreactivity screen of Harvey et al. (2022)

Test: yeast display, Sf9 membrane polyspecificity reagent, FACS + sequencing; frameworks hold sequencing errors
In short: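 In a synthetic yeast display library (Saccharomyces cerevisiae BJ5465), nanobody expression was induced with galactose for 36–48 hours. FACS gates were set low and high (top ~1%) using anti-HA fluorescence for expression and streptavidin fluorescence for binding of the Sf9 membrane reagent. Each polyreactivity label is drawn from the gate of origin.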

| Sequence | polyreactivity (PSR sort gate) |
| --- | --- |
| QVQLVESGGGLVQAGGSLRLSCAASGGIFGGYAMGWYRQAPGKDREFVAAISRRGGSTYYADSVKGRFTISRDNAKNTVYLQMNSLKPEDTAVYYCAADRYPSLYDYWGQGTQVTVSS | high polyreactivity |
| QVQLVESGGGLVQAGGSLRLSCAASGRTFVPYAMGWYRQAPGKERELVAAISYSGDSTYYADSVKGRFTISRDNAKNTVYLQMNSLKPEDTAVYYCAARGGNPFYYWGQGTQVTVSS | low polyreactivity |
| QVQLLESGGGLVQAGGSLRLSCAASGRTFTGYVMGWYRQATGKERELVAGISRRGGRTYYADSVKGRFTISRDNAKNTVYLQMNSLKPEDTAVYYCAAAVTSSDPYDYWGQGTQVTVSS | high polyreactivity |
| QVQLVESGGGLVQAGGSLRLSCAASGFTLQVYDMGWYRQAPGKERELVADISGSGDSTNYADSVKGRFTISRDNAKNTVYLQMNSLKPEDTAVYYCAAEVRGGYYGYDYWGQGTQVTVSS | low polyreactivity |
| QVQLEESGGGLVQAGGSLRLSCAASGSTLNYYAMGWYRQAPGKERELVAAITWSGGSTSYADSVKGRFTISRDKAKNTVYLQMNSLKQEDTAVYYCATDFPTVQLYDTDWLSSDMGYWGQGTQVTVSS | low polyreactivity |
| QVQLEESGGGLVQAGGSLRLSCAASGIIFSGYAMGWYRQAPGKERELVASIRSGSNTYYADSVKGRFTISRDNAKNTVYLQMISLKPEDTAVYYCAARVVPATFRFIRYPHPYYYWGQGTQVTVSS | low polyreactivity |
| QVQLVESGGGLVQAGGSLRLSCAASGRIFTWNAMGWYRQAPGKERELVASISRSGTSTYYADSVKGRFTISRDNAKNSVYLQMNSLKAEDTAVYYCAAKRYGYKMYYWGQGTQVTVSS | high polyreactivity |
| QVQLVESGGGLVQAGGSLRLSCAASGSIFPYYAMGWYRQAPGKERELVAAISDSGDSTYYADSVKGRFTISRDNAKNTVYLQMNSLKPEDTAVYYCAADQTSSYYDPWGDYWGQGTQVTVSS | low polyreactivity |
| QVQLVESGVGLVQAGGSLRLSCAASGSTIQYYAQGRYRQAPGKEREFVAAISISGGSTYYADSLKGRFTISRDNAKNTVYLQMNSLIPEDSEVYYCAARKKEYKPGKYWGQGTQVTVSS | low polyreactivity |
| QVQLVESGGGLVQAGGSLRLSCAASGFIFSYYAMGWYRQAPGKERELVAAITWSGGGTYYADSVKGRFTISRDNAKNTVYLQMNSLKPEDTAVYYCAAERVYPDGEYWGQGTQVTVSS | high polyreactivity |
| QVQLVESPGRLVQAGGSLRLSCDPTGRTFKIYALGSSRQAPGKESELVAAIRRSGGNTYYADSVKGRFTISRDNAKNTVYLQMNSLKPEDTAVYYCAVGRGSLRGRTDGGYWGQGTQVTVSS | high polyreactivity |
| QVQLVESGGGLVQAGGSLRLSCAASGIIFLWYAMGWYRQAPGKERELVAAISRTGSSTYYADSVKGRFTISRDNAKNTVYFQMNSLKPEDTAVYYCAAAYYSKRSWRFDYWGQGTQVTVSS | high polyreactivity |
| QVQLEESGGGLVQAGGSLRLSCAASGIIFGTNAMGWYRQAPGKERELVATISWRGGSTYYADSVKGRFTISRDNAKNTVYLQMTSLKPEDTAVYYCAAGASGQRAYRRYYWGQGTQVTVSS | high polyreactivity |
| QVKLVESGGGLVQAGGSLRLSCAASGSTFLYYGMGWYRQAPGTERELVATITWRGGRTYYADSVKGRFTISRDNAKNTVYLQMNSLKPEDTAVYYCAARVVGSYRKPYPYGLYYWGQGTQVTVSS | high polyreactivity |
| QVQLVVSGGGLVQEGGSLRLSCAASGGLFSLYAMGWYRQAPGKEREFVSAISFSGASTYYADSVKGRFTISRDNAKNTVSLQKNSLKPEDTSVYYCAAYWDAVGRRYTRLYYWGQGTQVTVSS | low polyreactivity |
| QVQLVESGGGLVQAGGSLRLSCAASGRTFWQYAMGWYRQAPGKERELVAAIRYSGGSTYYADSVKGRFTISRDNAKNTVYLQMNSLKPEDTAVYYCAKRLKPGFYYWGQGTQVTVSS | high polyreactivity |
| QVQLVESGGGLVQAGGSLRLSCAASGSTSDLYAMGWYRQAPGKERELVAAITWSGDSTYYADSVKGRFTISRDNAKNTVYLQMNSLKPEDTAVYYCNAEYYDYFDYESDYWGQGTQVTVSS | low polyreactivity |
| QVQLVESGGGLVQAGGSLRLSCAASGSTFPYNAMGWYRQAPGKERELVAAITGRGGSTYYADSVKGRFTISRDNAKNTVYLQMNSLKPEDTAVYYCGADFWYSYYYWGQGTQVTVSS | high polyreactivity |
| QVQLVESGGGLVQAGGSLRLSCAASGFIFRYYAMGWYRQAPGKERELVAAISRSGGSTYYADSVKGRFTISRDNAKNTVYLQMNSLKPEDTAVYYCNKDPRGRIPVPGTWIMDYWGQGTQVTVSS | high polyreactivity |
| QVQLVESGGGLVRAGGSLRLSCAASGSIFKYYAMGWYRQAPGKDRELVAAISWSGGSTFYADSVKGRFTISRDNAKNTVYLQMNSLKPEDTAVFYCARYKLRSGRSGDHDVYWGQGTQVTVSS | high polyreactivity |
| QLQLVESGRGLVQAGGSLRLSCAPSGRILVLIAMGWYRQATGKERELVADITSGGSTYYADSVKGRFTISRDNAKKTVYLQMNSLKKEDTAVYYCAADWNTYPDYQQSYFVCYEYNYWGQGTQVTVSS | low polyreactivity |
| QVQLVESGGGLVQAGGSLRLSCAASGRIYGLYAMGWYRQAPGKERELVAAISEGGGSTNYADSEKGRFTISRDNAKNTFYLQMNSLKPDDTAVYYCAATYRTGVRRYYSWGQGTQVTVSS | low polyreactivity |

| Sequence | polyreactivity (PSR sort gate) |
| --- | --- |
| QVQLVESGGGLVQAGGSLRLSCAASGSTFLDYDMGWYRQAPGKERELVATINSVGSTYYADSVKGRFTISRDNAKNTVYLQMNSLKPEDTAVYYCAARQEPGWYPDVWWEYDYWGQGTQVTVSS | low polyreactivity |
| QVQLVESGGGLVQAGGSLRLSCAASGFIFEPNAMGWYRQAPGKERELVAAISWSGGSTYYADSVKGRFTISRDNAKNTVYLQMNSLKPEDTAVYYCNADITYAYYEYGSWGQGTQVTVSS | high polyreactivity |
| QVQLVESGGGLVQAGGSLRLSCAASGSIFDGYAMGWYRQAPGKERELVAAISSGGSTYYADSVKGRFTISRDNAKNTVYLQMNSLKPEDTAVYYCNRVRRRVSTSIYNYWGQGTQVTVSS | high polyreactivity |
| QVQLVESGGGLVQAGGSLRLSCAASGYIFRRYAMGWYRQAPGKERELVAAISKSGVSTYYADSVKGRFTISRDNAKNTVYLQMNSLKPEDTAVYYCAASSYTWGEDYWGQGTQVTVSS | high polyreactivity |
| QLQLVESGGGLVQAGGSLRISCAASGFIFNGYAMGWSRQAPGKERELVAAITADVGDTYYADSVKGRFTLSRDNAKYTVYLQLNSLKPDDPAVYYCAADQAEWLDPDDYWGQGTQVTVSS | low polyreactivity |
| QVQLVESGGGLVQAGGSLRLSCAASGSTFYYNVMGWYRQAPGKEREFVAAITQRGGSTYYADSVKGRFTISRDNAKNTVYLQMNSLKPEDTAVYYCAARTRYDFDWGQGTQVTVSS | high polyreactivity |
| QVQLVESGGGLVQAGGSLRLSCAASGSIFQYNAMGWYRQAPGKERELVAAINGGGSTYYADSVKGRFTISRDNAKNTVYLQMNSLKPEDTAVYYCAADGGAYSYRGPGKFGIEDSWGQGTQVTVSS | low polyreactivity |
| QVQLLESGGGLFQAGGSLRLSCAASGYTFSRNAMGWYRTAPGKERELVAANTGSGGSTYYADSVKGRFTISRDNAQNTVYYQMNSLKPEDTAVYYCATEVKRGYVGFDYWGQGTQVTVSS | low polyreactivity |
| QVQLVESGGGLVQAGGSLRLSCAASGGIFGRYAMGWYRQAPGKERELVAAISSRGGSTYYADSVKGRFTISRDNAKNTVYLQMNSLKPEDTAVYYCNALWVSYYTFRMDYWGQGTQVTVSS | high polyreactivity |
| QVQLVESGGGLVQAGGSLRLSCAASGITFSRYAMGWYRQAPGKERELVAAITSSGGSTYYADSVKGRFTISRDNAKNTVYLQMNSLKPEDTAVYYCAATSYYTREQYYYWGQGTQVTVSS | high polyreactivity |
| QVQLVESGGGLVQAGGSLRLSCAASGSIFDVNAMGWSRQPPGKERELVAVISSSDSTDYADSVKGRFTISRDNAKNTVYLQMNSLKPEDTAVYYCAADEYQDRPDDYWGQGTQVTVSS | low polyreactivity |
| QVQLVESVVGLVQAGGSLRLSCAASGRTFRRYAMGWYRQAPGKERELVAAISRSGGSTYADSVKGRFTISRDNAKNTVYLQMNSLKPEDTAVYYCAAVTYSGSRFDYWGQGTQVTVSS | high polyreactivity |
| QVQLVESGGGLVQAGGSLRLSCAASGFTFPYYAMGWYSQAPGKERELVAAINRSGGITYYADSVRGRFTISRDNAKNTVYLQMKSLKPEDTAVYYCAAPSFGYRTWSVFGSGHDYWGQGTQVTVSS | high polyreactivity |
| QVQLVESGGGLVQAGGSLRLSCAASGITFGANTMGWYRQAPGKERELVAAITISGGITHYADSVKGRFTISRDNAKNTVYLQMNSLKPEDTAVYYCAAGAYWRLYPYRQRNGGRMYYWGQGTQVTVSS | low polyreactivity |
| QVQLEESGGGLVQAGGSLRLICPASGRTFIRKAMGRYRQAPGKERELVASIRWSGGSTYYADSVKGRFTISRDNAKNTVYLQMNSLKTEDTAVYYCAASRWRPLERGTTWLHDYWGQGSQVTVSS | low polyreactivity |
| QVQLVESGGGLVQAGGSLRLSCAASGRIFDRNAMGWYRQAPGTERELVAAISRRGGSTYYADSVKGRFTISRDNAMNTVYLQMNSLKPEDTAVYYCNTGYSTRLHDYWGQGTQVTVSS | high polyreactivity |
| QVQLVESGGGLVQAGVSLRLSWAASGRTGVNAMGWYRQAPGKERGLVAAINTSVGRTYYADSVKGRFTISRDNAKNPVYLQMNCLKPEDTAVYYCNTDRLGAARYDDWGQGTQVTVSS | low polyreactivity |
| QVQLVESGGGLVQAGGSLRLSCDASGRIFLDYVMGWYRQAPGKERELVAAISWSGDRTDYADSVKGRFTISRDNAKNTVYLQMNSLKPEDTAVYYCATTWYFAYSDDYKFDYWGQGTQVTVSS | low polyreactivity |
| QVQLVESGGGLVQAGGSLRLSCAASGSIFKRYAMGWYRQAPGKERELVARISRRGGTYYADSVKGRFTISRDNAKNTVYLQMNSLKPEDTAVYYCNANVIFADNNDRDYWGQGTQVTVSS | low polyreactivity |
| QGQLVESGGGLVQAGGSLRLSCAASGITFYSYAMGWYRQAPGKERELVAAITLTGGTTYYADSVKGRFTISRDNAKNTVYLQMNSLKPEDTAVYYCNSDYGGGVDGTYKYYSEYDYWGQGTQVTVSS | low polyreactivity |
| QVQLVESGGGLVQAGGSLRLSCAASGFIFYVNAMGWYREAPGNERQLVAAISLIGGSTYYADSVKGRFTISRDNAKNTVYLQMNSLIPEDTAVYYCAADPFPGVYDDAIIDYDYWGQGTQVTVSS | low polyreactivity |
